Test results reported in the DeepSol protein solubility set.

Test: soluble on expression in E. coli; label from the status in PepcDB or PDB records

For “MATAAVTDDIEEGARKAPALIRYLAEGEYVTRRYVSQGAEMNTGEYADYECVVRDGMPIRDHFTLDVHGFALGRHRSAVADFHDKPTVDALYLDEVEELVTRLCGAARTAAQGWMIRTSADLTERAKQKVQGYQHSGGIQPPAGEAHVDYNEVTGRRAAARVYADRFPDGPGYKRYICFSLWRTFSPGPQDWPLAVCDGRTVRDEETASNTLFVVDEFPVGDALTAPVEGEDQMIAATIFRHRDRHRWWYFSNMAADDVLLFKFQDSDHSVTWRCPHTAFHDTSLPDAKTRSSIEVRCIAFFELEHHHHHH”, which “soluble on expression in E. coli” value is on record?
Its value is “soluble”.

Which “soluble on expression in E. coli” value does the source give for “MATCGRRDDILDLLKSLEQQTYKNFELIVVDQNDTPISDLFDEYKDKFSINYIYTPIKGLSRARNAGLKVADGDFIAFPDDDCIYEKNVLESILETFNSNKDVHFISTNTTNVEGTGSLIHAPNTDIILNNKYGFMGPSFTLFFTKQFVQDVGTFDEDLGVGSGTIYGAGEETDFVLRGMKQNYTGLFRKDLFVYHPVKEEIINEQSLKRAISYAGGFGRIIRLHYGFPYFLRAVAAATFRMTQNISNDKRKFHANRLRGIVRGYLK” here?
Its value is “not soluble”.

With “MATFASRELTEEDDSHPGPSEKSEKDVLGIVRTGPKKLITGESSSLFKLKNELLKRKDRLNSEVHIKHTETHVSGKSNLLSTKKEEKERQARKDESRKLRIEKNERAVRREEDEARLMAAQQKLREKSELYDRMQEGNVVLANLDDTPVEFLVDFGTKKRRIEEERAWERERYREQEEAAPIGFGRAPIPEHYHHSEEQRVYGTSHMRLSLNENKRKEEIEKLLEMSKKTDMDKAKKKETEKHRDILRREKLNKLRAKHGLELLPEIVEPVAVPASQIDLNSIPLPGQKETPEERHARLMKSDREWDRGKGHYTTWIEKQRDERDDEFRPPDSYFR” as the sequence, how does the “soluble on expression in E. coli” value read?
The value was “soluble”.

For “MATKLQDGNTPCLAATPSEPRPTVLVFDSGVGGLSVYDEIRHLLPDLHYIYAFDNVAFPYGEKSEAFIVERVVAIVTAVQERYPLALAVVACNTASTVSLPALREKFDFPVVGVVPAIKPAARLTANGIVGLLATRGTVKRSYTHELIARFANECQIEMLGSAEMVELAEAKLHGEDVSLDALKRILRPWLRMKEPPDTVVLGCTHFPLLQEELLQVLPEGTRLVDSGAAIARRTAWLLEHEAPDAKSADANIAFCMAMTPGAEQLLPVLQRYGFETLEKLAVLG”, which “soluble on expression in E. coli” value is on record?
The value was “soluble”.

For “MATKSVLMLGSGFVTRPTLDVLTDSGIKVTVACRTLESAKKLSAGVQHSTPISLDVNDDAALDAEVAKHDLVISLIPYTFHATVIKSAIRQKKHVVTTSYVSPAMMELDQAAKDAGITVMNEIGLDPGIDHLYAIKTIEEVHAAGGKIKTFLSYCGGLPAPESSDNPLGYKFSWSSRGVLLALRNAASFYKDGKVTNVAGPELMATAKPYFIYPGFAFVAYPNRDSTPYKERYQIPEADNIVRGTLRYQGFPQFIKVLVDIGFLSDEEQPFLKEAIPWKEATQKIVKASSASEQDIVSTIVSNATFESTEEQKRIVAGLKWLGIFSDKKITPRGNALDTLCATLEEKMQFEEGERDLVMLQHKFEIENKDGSRETRTSSLCEYGAPIGSGGYSAMAKLVGVPCAVAVKFVLDGTISDRGVLAPMNSKINDPLMKELKEKYGIECKEKVVA”, which “soluble on expression in E. coli” value is on record?
Its value is “soluble”.

With “MATLIYVDKENGEPGTRVVAKDGLKLGSGPSIKALDGRSQVSTPRFGKTFDAPPALPKATRKALGTVNRATEKSVKTKGPLKQKQPSFSAKKMTEKTVKAKSSVPASDDAYPEIEKFFPFNPLDFESFDLPEEHQIAHLPLSGVPLMILDEERELEKLFQLGPPSPVKMPSPPWESNLLQSPSSILSTLDVELPPVCCDIDILEHHHHHH” as the sequence, how does the “soluble on expression in E. coli” value read?
Its value is “not soluble”.

With “MATQKEKPSSNSFKWFSTKTLKLNLSFQNRRRSPKSNSSSTLNSPRSNSDDNNNIKSHQASKEELRQVFSHFDSDGDGKISAFELRHYFGSVGEYISHEAAQEAINEVDTDADGSLGFEDFVGLMTRRDLYGDGEVDGDGELKTAFEMFEVEKGSGCITPKGLQKMLVKLGESRTYGECEAMIKFYDIDGNGILDFHEFRQMMTV” as the sequence, how does the “soluble on expression in E. coli” value read?
Its value is “soluble”.

Which “soluble on expression in E. coli” value does the source give for “MATVDPIRYPIGTFQAPQQFEAGEVQEWIAAIRGLPSDLRTAVSGLNDEQLNTPYREGGWTVAQVVHHLADASMNAFLRTKWGVTEDGPTVKPFAESEWAKTADACLLPIEPSLLLLDGLHARWAALLESMTEADFHRTVRPEGAAGEMPLYVLTALYAWHGKHHTAQVASLRKRKGW” here?
Its value is “soluble”.

Which “soluble on expression in E. coli” value does the source give for “MATVTELKAVLKDTLEKRGVLGHLKARIRAEVFNALDDDREPRPSLSHENLLINELIREYLEFNKYKYTASVLIAESGQPVVPLDRQFLIRELNAFEESKDNSIPLLYGILAHFLRGPPDGAQNVLLTESTLHPATKHLSWKPSRRPDDDHVRKDTGPRTTTEELPAAAQAVSR” here?
Its value is “soluble”.

For “MAVDAVNSAAANPWANAGASSSDKNAASLNYDSFLKLLIAQMKNQDPTSPMDAGQQMSQLASFSQVEQTIKTNTHLKSMLQAEALTRASDLVGKTVMSADDKVTGVVKEVQVFSDGIVAVTEAGDKVLLQAGVVFSNGPITTKSDETTADSNNSAGS”, which “soluble on expression in E. coli” value is on record?
Its value is “not soluble”.

For “MAVDWPRGGLMPRLRRLEDLLPHIREGRYRLGPHAAKHMLQEGFREQDILSALLWGRELAIYPEDERMLVLGYMVFPPRLRLPLHVVLEYSTPRHVDIVTAFIPREPYRVYSRARLAALLRFDGALEEVRWTGPKHLYPPWD”, which “soluble on expression in E. coli” value is on record?
Its value is “soluble”.

For “MAVSHSVKERTISENSLIILLQGLQGRVTTVDLRDESVAHGRIDNVDAFMNIRLAKVTYTDRWGHQVKLDDLFVTGRNVRYVHIPDDVNITSTIEQQLQIIHRVRNFGGKGQGRWEFPPKNCK”, which “soluble on expression in E. coli” value is on record?
The value was “not soluble”.

With “MAYLYELEGIYAQLQSMDLDEETFQDTLDSIDFQSDLENNIEYFVKMLKNVQADAEKYKAEKEAFYKKQKQAEAKAEKYKETIRLAMELSQKKKVDAGMFKVSLRRSKKVEILDETKIPLDYMQEKIEYKPMKAEISKALKSGIDISGVELIETESLQVK” as the sequence, how does the “soluble on expression in E. coli” value read?
The value was “not soluble”.

For “MAYSNDEIVKGIDGIYSNENPNSNIKYVINESRFNASQLCKTKKGIKQMSDEWLLEDGGKRILEAVNGDRKLQKDIIRVLNKGQVEKVLSRVGKDGKVTTYRLNSNGEIIGFWP”, which “soluble on expression in E. coli” value is on record?
The value was “not soluble”.

For “MAYSYTEKKRIRKDFSKLPDVMDVPYLLAIQLDSYREFLQAGATKEQFRDVGLHAAFKSVFPIISYSGNAALEYVGYRLGEPAFDVKECVLRGVTFAVPLRVKVRLIIFDRESSNKAIKDIKEQEVYMGEIPLMTENGTFIINGTERVIVSQLHRSPGVFFDHDRGKTHSSGKLLYSARIIPYRGSWLDFEFDPKDCVFVRIDRRRKLPASVLLRALGYSTEEILNAFYATNVFHIKGETLNLELVPQRLRGEVASIDIKDGSGKVIVEQGRRITARHINQLEKAGVSQLEVPFDYLIGRTIAKAIVHPATGEIIAECNTELTLDLLAKVAKAQVVRIETLYTNDIDCGPFISDTLKIDNTSNQLEALVEIYRMMRPGEPPTKEAAETLFGNLFFSAERYDLSAVGRMKFNRRIGRTEIEGPGVLSKEDIIDVLKTLVDIRNGKGIVDDIDHLGNRRVRCVGEMAENQFRVGLVRVERAVKERLSMAESEGLMPQDLINAKPVAAAIKEFFGSSQLSQFMDQNNPLSEITHKRRVSALGPGGLTRERAGFEVRDVHPTHYGRVCPIETPEGPNIGLINSLATYARTNKYGFLESPYRVVKDSLVTDEIVFLSAIEEADHVIAQASATLNEKGQLVDELVAVRHLNEFTVKAPEDVTLMDVSPKQVVSVAASLIPFLEHDDANRALMGSNMQRQAVPTLRADKPLVGTGMERNVARDSGVCVVARRGGVIDSVDASRVVVRVADDEVETGEAGVDIYNLTKYTRSNQNTCINQRPLVSKGDVVARGDILADGPSTDMGELALGQNMRVAFMPWNGFNFEDSICLSERVVQEDRFTTIHIQELTCVARDTKLGPEEITADIPNVGEAALNKLDEAGIVYVGAEVQAGDILVGKVTPKGETQLTPEEKLLRAIFGEKASDVKDTSLRVPTGTKGTVIDVQVFTRDGVERDSRALSIEKMQLDQIRKDLNEEFRIVEGATFERLRAALVGAKAEGGPALKKGTEITDDYLDGLERGQWFKLRMADDALNEQLEKAQAYISDRRQLLDDKFEDKKRKLQQGDDLAPGVLKIVKVYLAIKRRIQPGDKMAGRHGNKGVVSVIMPVEDMPHDANGTPVDIVLNPLGVPSRMNVGQILETHLGLAAKGLGEKINRMLEEQRKVAELRKFLHEIYNEIGGREENLDELGDNEILALAKNLRGGVPMATPVFDGAKEREIKAMLKLADLPESGQMRLFDGRTGNQFERPTTVGYMYMLKLNHLVDDKMHARSTGSYSLVTQQPLGGKAQFGGQRFGEMEVWALEAYGAAYTLQEMLTVKSDDVNGRTKMYKNIVDGDHRMEAGMPESFNVLIKEIRSLG”, which “soluble on expression in E. coli” value is on record?
The value was “not soluble”.

With “MAYWLFKTEPDTFSIDTLRTQKVSCWEGVRNYQARNMMRDQVKVGDFVLIYHSSCKNVGVAGIAKVVREAYPDHFQFDPESDYYDPKSDPDNPRWIMVDIEFVRKTARVIPLSVMKAMPELENMPLVKRGNRLSIMPVTEDEWEAILGKEKLPSQRLEHHHHHH” as the sequence, how does the “soluble on expression in E. coli” value read?
The value was “soluble”.

For “MCDKLGGVAIAVQGALFEHNERRQLGDGAFIDIRSGWLTGGEELLDALLSTVPWRAERRQMYDRVVDVPRLVSFHDLTIEDPPHPQLARMRRRLNDIYGGELGEPFTTAGLCYYRDGSDSVAWHGDTIGRGSTEDTMVAIVSLGATRVFALRPRGRGPSLRLPLAHGDLLVMGGSCQRTFEHAVPKTSAPTGPRVSIQFRPRDVR”, which “soluble on expression in E. coli” value is on record?
The value was “not soluble”.

Which “soluble on expression in E. coli” value does the source give for “MCEQCGKCKCGECTAPRTLPSCLACNRQCLCSAESMVEYGTCMCLVKGIFYHCSNDDEGDSYSDNPCSCSQSHCCSRYLCMGAMSLFLPCLLCYPPAKGCLKLCRRCYDWIHRPGCRCKNSNTVYCKLESCPSRGQGKPSLEHHHHHH” here?
Its value is “not soluble”.

For “MCFSPEDRKKTDHLLALDGAKERLKLFKADLLDEGSFELAIDGCETVFHTASPVAITVKTDPQVELINPAVNGTINVLRTCTKVSSVKRVILTSSMAAVLAPETKLGPNDVVDETFFTNPSFAEERKQWYVLSKTLAEDAAWRFAKDNEIDLIVLNPGLVTGPILQPTLNFSVAVIVELMKGKNPFNTTHHRFVDVRDVALAHVKALETPSANGRYIIDGPVVTIKDIENVLREFFPDLCIADRNEDITELNSVTFNVCLDKVKSLGIIEFTPTETSLRDTVLSLKEKCLV”, which “soluble on expression in E. coli” value is on record?
The value was “soluble”.

Which “soluble on expression in E. coli” value does the source give for “MCISKIDMAKVKKFFKEYLFAKFQCKNRELYRQLKDYDPKDDQKYLKWEHFVEYVEQVLEALDKTSAQIIKEIYIQNKRICELPYSYSTYYAYRKKAIIELLAYLDLKI” here?
The value was “soluble”.

For “MCKMEITDLIKGMESANVSDIYIFLHEDGPVAFDASAAHLLCYFPEMEMESVFCSDSKRHRIIQGFALEPVLERLAQYPCLVDDDCIRIMGVL”, which “soluble on expression in E. coli” value is on record?
The value was “not soluble”.

Which “soluble on expression in E. coli” value does the source give for “MCLAIPMQIESIDGFTARCAAKGVWRDVSLFMMQDAPPEVGDFVMVHVGYAIQKVTEADARSAWELLDQILEENGA” here?
The value was “not soluble”.

Which “soluble on expression in E. coli” value does the source give for “MCTQDEECSAPGGDKGKEKEEHTVVPRGKEEKEKKPGTKPSPISPAFKGTPKERPNCGKTKNETSGKKLRSNDVSPDVKDRLQLSEHGPSKTCIKDFQWLEDFITKMPCFHGFIGREDLMSVLKNVGDFLIRTSVQPNKHEVEKMKKNQADVKVLGNLSREKCAKKEKEKEEKLAGMGDVGRREFVISVYCKDKEKPATDKPQYTPIRNLVIKRDNGMVHVEPLRKFKTLTEFFGYYQKNSGICKETDFQLITPIPLSNWEFIHEDIALQQKKLGEGAFGEVRIGKMKLKSTKKTVEVAVKMLRNAEVVIREQVGELLHEARVMRMMDHKNVLRSYGIAVLKEPLYLMTEMCACGALREYLRENQETVTLAEKLFFVVGSSRGVQYLHSQKTIHRDLAVRNILLSEDRTPKISDFGLAKISERYEMKEQCKIPVRYLAPETLESFIFTTKTDVFSFGCVIWEIYENGNQPHDGKNAQTIRNLTKKNQFLKLTNSAPSELRKLIEERVFTSDPENRCSMTTIVQCAEKIEKPPVGMK” here?
Its value is “not soluble”.
